test: soluble on expression in E. coli; label from the status in PepcDB or PDB records

| Sequence | soluble on expression in E. coli |
| --- | --- |
| PAKLGYWKIRGLQQPVRLLLEYLGEKYEEQIYERDDGEKWFSKKFELGLDLPNLPYYIDDKCKLTQSLAILRYIADKHGMIGTTSEERARVSMIEGAAVDLRQGISRISYQPKFEQLKEGYLKDLPTTMKMWSDFLGKNPYLRGTSVSHVDFMVYEALDAIRYLEPHCLDHFPNLQQFMSRIEALPSIKAYMESNRFIKWPLNGWHAQFGGGDAPP | soluble |
| MSLSTARIMLVDDHPIVREGYRRLIERRPGYAVVAEAADAGEAYRLYRETTPDIVVMDLTLPGPGGIEATRHIRQWDGAARILIFTMHQGSAFALKAFEAGASGYVTKSSDPAELVQAIEAILAGRRAMSPDIAQEIAEERVEGRATAIADLSPRETEILRMLASGMTSDEIAAGLCLSVKTVQNNHYQIKAKLGARTDAHLVWVAIEAGLVREGHHHHHH | soluble |
| MKKEQVEKRTYLAVDIGASSGRIMKSQRLANGQITIEEIHRFKNGFHQKDGYQRWDMASLVHELLLGLQKVKQLGIKECFIGIDTWGVDYCLLDQSGQLLDEPIAYRDGRTEAAVTNFSKGYSLEKLYQQTGIQVQPFNTIFQLFVEEKERLAAASQLLLIPDYLGYVFTGKAVIEATNASTTQLLNAGTKQWESELLDFLGIDETLFPTLVEPGTILGDLQTAAFPDYDLPNATLITIASHDTASAILGTPGIGDDWAYISSGTWSLLGIETTVTTISAEAFQENYTNEWGAQNTIRFLKNIMGMWLIQEVARHQNYQYSYAELAALAEKEPAFQQFIDVNDPRFLNPGNMITELQAYCRETQQTVPESPGELARCIYDNLALCYSVELEKLAQLTGIERKITTLHVVGGGSNNRLLNQLTADVANVTVNAGPGEAIALGNLLMQMIATGELKDIPAARTCIQTSFPTEIYQANPIDSTIKNRYQAFMKRSSL | not soluble |
| EEFPFALGVQTLPQTCDEPKAHTSFQISLSVSYTGSRSASNMAIVDVKMVSGFIPLKPTVKMLERSNHVSRTEVSSNHVLIYLDKVSNQTLSLFFTVLQDVPVRDLKPAIVKVYDYYETDEFAIAEYNAPCSKDLGNA | soluble |
| EMVKLQSVITGSMQTGRSRARIEQAVVALLTYVEEETDAFQILVRDMKAGQDHSYSTLLNDAVEQVSHILGQAFERSGLNPKNATLYAQALVGMVSMTAQWWLDRRKEPNAATKEQVAAHIVNLCWNGLAGMEANPQLSNIDSPPETLGAH | not soluble |
| EALLNDSALQSVPIVVPSRGSKLLGATLKTELTQEEVQQTLVDGFFPQVAITDHPVQRNRGALTQMGLPYAQDAGITRHIAAFLSKQAHAQSGGESAQAQDFNPFANMPGMPGSDAAQSADFIKPTAILFNGGVLKSKLLATRLEDTINKWLIEADAEMAKRLTGVDLDLAVASGAAYYGSVRRGQGVRIRGGIASAYYVGIESAMPAIPGMAPPMEALCVAPFGMEEGSSVDVPSQEFGLIIGQPVNFQFFGSTVRRDDLAGTHLDYWAPEELEELPEIQVTLPVSEGRREGEVVPVTLASRVTELGTLYLEAIAADNGQKWHVEFDVREDAKSDSNEEQ | not soluble |
| MPIMLEDYQKNFLELAIECQALRFGSFKLKSGRESPYFFNLGLFNTGKLLSNLATAYAIAIIQSDLKFDVIFGPAYKGIPLAAIVCVKLAEIGGSKFQNIQYAFNRKEAKDHGEGGIIVGSALENKRILIIDDVMTAGTAINEAFEIISNAKGQVVGSIIALDRQEVVSTDDKEGLSATQTVSKKYGIPVLSIVSLIHIITYLEGRITAEEKSKIEQYLQTYGASA | soluble |
| MGHHHHHHSHMSETSFNLISEKCDILSILRDHPENRIYRRKIEELSKRFTAIRKTKGDGNCFYRALGYSYLESLLGKSREIFKFKERVLQTPNDLLAAGFEEHKFRNFFNAFYSVVELVEKDGSVSSLLKVFNDQSASDHIVQFLRLLTSAFIRNRADFFRHFIDEEMDIKDFCTHEVEPMATECDHIQITALSQALSIALQVEYVDEMDTALNHHVFPEAATPSVYLLYKTSHYNILYAADKH | soluble |
| MNQIIENAFVKVEVSPHGAELQSIFNKQFHLEYLWQGDPAVWPRKAPVLFPIVGKVKDNQYTISGKTYSLSQHGFARDNAFTLVSATDTTLVYRLTHSEDSFKNFPYEFELDISYSIEHSILKVAYKIHNSSGTSDLYYSIGAHPGFRCPLVEGETFEDYYLEFEKAEKLNRVLLDGGLRGDQTEPVPLTNNKLPLSVNLFGSKDAIVVSGLHSERISLKSNKSVHGLHFDYKNYPWFGIWSKPGPFVCLEPWMGVADDIHAAGDFIKKESIQFLQPKAEALFTYSIELFLEHHHHHH | not soluble |
| MIIERLVGNLRDLNPLDFSVDHVDLEWFETRKKIARFKTRQGKDIAIRLKDAPKLGLSQGDILFKEEKEIIAVNILDSEVIHIQAKSVAEVAKICYEIGNRHAALYYGESQFEFKTPFEKPTLALLEKLGVQNRVLSSKLDSKERLTVSMPHSEPNFKVSLASDFKVVVK | not soluble |
| MISTNGITMQFGAKPLFENVSVKFGEGNRYGLIGANGSGKSTFMKILGGDLEQTAGEVAIENGVRLGKLRQDQFAYEDMRVLDVVMMGHTEMWAAMTERDAIYANPEATEDDYMKAAELEAKFAEYDGYTAEARAAELLSGVGISEDLHNAKMAEVAPGFKLRVLLAQALFSKPDVLLLDEPTNNLDINTIRWLEGVLNQYDSTMIIISHDRHFLNEVCTHMADLDYNTITIYPGNYDDYMLASAQSRERALKDNAKAKEKLQELQEFVARFSANKSKARQATSRLKQADKIKSEMVEVKPSTRQNPYIRFEADEKAKLHRQAVEVEKLAKRFETQLFKNLNFILEAGQRLAIIGPNGAGKSTLLKLLAGAYNPEYSDGLLPDEGTIKWAEKASVGYYPQDHENDFDVDMDLSEWMRQWGQEGDDEQVIRGTLGRLLFGSNDVVKKVKVLSGGEKGRMLYGKLLLLKPNVLVMDEPTNHMDMESIESLNMALEKYNGTLIFVSHDRQFVSSLATQIIELDGKGGYEHYLGDYESYLEKKGVA | not soluble |
| METAMSKGVITITDAEFESEVLKAEQPVLVYFWASWCGPCQLMSPLINLAANTYSDRLKVVKLEIDPNPTTVKKYKVEGVPALRLVKGEQILDSTEGVISKDKLLSFLDTHLNNN | soluble |
| KGNEFEDYCLKRELLMGIFEMGWEKPSPIQEESIPIALSGRDILARAKNGTGKSGAYLIPLLERLDLKKDNIQAMVIVPTRELALQVSQICIQVSKHMGGAKVMATTGGTNLRDDIMRLDDTVHVVIATPGRILDLIKKGVAKVDHVQMIVLDEADKLLSQDFVQIMEDIILTLPKNRQILLYSATFPLSVQKFMNSHLEKPYEIN | soluble |
| MQRFVFGGKLWKFNETFGCYDDYPHVAPFLAVEHFASFPVHPPTFIFSNAAVSNILSMEEIKSVLIRLDELISSNNLHNHPCLISQAGAQATMRLASKDQLRSDWNTSVEIPFCLYVTQNGVCPRQFDYEDLHKQSQWVALFEEVILPLDKMQGSKLSKIAPHQHSSVVKNAIMKSKREKKTSCKKHSKSISGIDSSSSGCNSL | not soluble |
| MSSILIIGAGPTGLGAAHRLRGLGLENWHLFESTEQIGGLSASFVDDHGFTWDVGGHVLFSHYDYFDRVVEEALDGAWYEHQRECWVRIRETWVPYPFQNNIRHLPPDALEECLAGLKGLAGSPSLAANFREWMDRVFGAGIVKHFMEPYNRKVWGVPLHEMSREWIGERVSVIDLARIEKNIAEKTDDVNWGPNNTFKFPHKGGTGAIFSSIATRFQDRISFSHELTEVNLAARELGFSNGRRERYDSLITTIPLDIFIGLCRDVPESVREAASRLVHNSGLIVGIGVEGERRDSKCWMYFPEDNCPFYRVTNFHNYSPWNVPNGDTSRFFSLMCETTSSPHKPVNRAEIVETTIQGLINAGMLTESERERIISRYVIDIPYSYPVPTVGRDEALAVINPFLESQGVYSRGRFGAWKYEVGNMDHSFMQGVEVADRILNGADEPTVTGKGGDRLEHHHHHH | not soluble |
| MSKPSTPAPASADQNGDSATRQTAQTTETPASLLSAVGNGAPNMAGFTLNRDMVPFFPYQLQNPMLQPPQNSLENAIVHSLGTLAAQSSMFGQLCEKMLKAQEEARADQRSIREEHRAEREKADERSQQNMDKMMALVHSLVERVDRSHASSYDVVGQKNPSSSSLKPAKRVKSAVVRQSNLAKRTGAPVDAAKELKKIRDEENRNHGRSAERDNVFIGAVLVGKGSQYDKDLEKFKSFRCRTCNEVSQTKEQLVDHFSNNHAGELGARRSLRIKQTSC | not soluble |
| MGSDKIHHHHHHEDDCATNPEPAGDVTEIKLSAGIQGVATRTPVSTNDNITAPFVASATTGDYTTNAWSSTVTFVASPTPTAALSFSPARYYPVDNSPIYIRGYYPAGTLSGKTVTLAGDGTEDVMLTAQASGTKATAGALSFVFNHLLTQLQFKLVAGAGYPASGVNVTSLVIKQQKTPATLDLNTSSLTYTTKDLTLSGTFPILTAGSTINNYPMVKSGEALTVAVTTSDGVTYPESTISVTTEVGKSHLITLTFTPKEITSSISVTAWQTGGTGSSTLQ | not soluble |
| AAIRHITTGTYIARIREEYQQTEVKPELQPMKEALARMTDRAEALIAFVTEQKDQELLDFQARRLVEMTAHAVFGHLLMLAANDDDSFRQSAEVYLRYGQAEQEKIDSYVRAFRPEELTFYSRCSRPE | soluble |
| MSLETRARNSTRPASGLIDWEQARQAALRLSQWEQAPVDNRAFRREQYARMVALSEPLIADYLGVRLPEPVSRIFVFDRREWLEANIVSFSQLFRPIEEMYEKNGGGRGALGVLMNDVSSKLLGVQIGGLLGYLAQRVLGQYDLSLLSAEATGGSLYFVEPNIARVQQQLGLSDEDFRLWITLHEMTHAFEFEAYPWVRTYFRELLEQNFALVSGQMLSSGNSLVDMLMRLLQGIGSGQHWIETVLTPEQRAVFDRIQALMSLIEGYGNHVMNAVGRRLLPSFNQIEQQIAQRQRQRTMLDQMVFRLTGLDLKLAQYQQGEAFVNAVVAARGIQFASRVWERPENLPSMDEIRNPGQWIVRMDREGHHHHHH | soluble |
| MHHHHHHMSGGLTPDQAIDAIRGTGGAQPGCRALHAKGTLYRGTFTATRDAVMLSAAPHLDGSTVPALIRFSNGSGNPKQRDGAPGVRGMAVKFTLPDGSTTDVSAQTARLLVSSTPEGFIDLLKAMRPGLTTPLRLATHLLTHPRLLGALPLLREANRIPASYATTEYHGLHAFRWIAADGSARFVRYHLVPTAAEEYLSASDARGKDPDFLTDELAARLQDGPVRFDFRVQIAGPTDSTVDPSSAWQSTQIVTVGTVTITGPDTEREHGGDIVVFDPMRVTDGIEPSDDPVLRFRTLVYSASVKLRTGVDRGAQAPPV | soluble |
| MEHKEVVLLLLLFLKSGQGEPLDDYVNTQGPSLFSVTKKQLGAGSREECAAKCEEDKEFTCRAFQYHSKEQQCVIMAENRKSSIIIRMRDAVLFEK | not soluble |
| MPTTRHYDIVIIGGGIQGAAVAQAAAALGYNVLVLEKTALAAGTSSRSSKLIHGGLRYLESGQFGLVWESLKERAALLRLAPSLVRLQPFHIPIYDQTSRDTLTIRAGLSLYALLAGLSKGAGFHSIPRRRWGELDGLSTRGLRHVFQYWDAQTDDQALTRAIMHSASSLGVELHCPAEFIHARISGEICEIEFLENNQAYQCTASSLVNAAGPWVSQVAERISPAPPAYPVELVQGTHLILEGSLDKGCYYLESPQDRRAIFALPWKQHILLGTTETVFEGAPDKALPLVSEENYLLGCFRYYFPDHGATVRERFTGLRVLPVSRNNPFGRSRETHLQCDSPESPRIVGIYGGKLTVCRATARKVLHTLRPSLPVRIPKADISQLTLKLPLEHHHHHH | soluble |

From the DeepSol protein solubility set
